# Data as given in publication PMC4529816 (Molecular cancer therapeutics, 2015).
# Target: T1, GAL4^DBD-SIN3B (UniProt O75182 1-1162)
# T1 sequence (looked up): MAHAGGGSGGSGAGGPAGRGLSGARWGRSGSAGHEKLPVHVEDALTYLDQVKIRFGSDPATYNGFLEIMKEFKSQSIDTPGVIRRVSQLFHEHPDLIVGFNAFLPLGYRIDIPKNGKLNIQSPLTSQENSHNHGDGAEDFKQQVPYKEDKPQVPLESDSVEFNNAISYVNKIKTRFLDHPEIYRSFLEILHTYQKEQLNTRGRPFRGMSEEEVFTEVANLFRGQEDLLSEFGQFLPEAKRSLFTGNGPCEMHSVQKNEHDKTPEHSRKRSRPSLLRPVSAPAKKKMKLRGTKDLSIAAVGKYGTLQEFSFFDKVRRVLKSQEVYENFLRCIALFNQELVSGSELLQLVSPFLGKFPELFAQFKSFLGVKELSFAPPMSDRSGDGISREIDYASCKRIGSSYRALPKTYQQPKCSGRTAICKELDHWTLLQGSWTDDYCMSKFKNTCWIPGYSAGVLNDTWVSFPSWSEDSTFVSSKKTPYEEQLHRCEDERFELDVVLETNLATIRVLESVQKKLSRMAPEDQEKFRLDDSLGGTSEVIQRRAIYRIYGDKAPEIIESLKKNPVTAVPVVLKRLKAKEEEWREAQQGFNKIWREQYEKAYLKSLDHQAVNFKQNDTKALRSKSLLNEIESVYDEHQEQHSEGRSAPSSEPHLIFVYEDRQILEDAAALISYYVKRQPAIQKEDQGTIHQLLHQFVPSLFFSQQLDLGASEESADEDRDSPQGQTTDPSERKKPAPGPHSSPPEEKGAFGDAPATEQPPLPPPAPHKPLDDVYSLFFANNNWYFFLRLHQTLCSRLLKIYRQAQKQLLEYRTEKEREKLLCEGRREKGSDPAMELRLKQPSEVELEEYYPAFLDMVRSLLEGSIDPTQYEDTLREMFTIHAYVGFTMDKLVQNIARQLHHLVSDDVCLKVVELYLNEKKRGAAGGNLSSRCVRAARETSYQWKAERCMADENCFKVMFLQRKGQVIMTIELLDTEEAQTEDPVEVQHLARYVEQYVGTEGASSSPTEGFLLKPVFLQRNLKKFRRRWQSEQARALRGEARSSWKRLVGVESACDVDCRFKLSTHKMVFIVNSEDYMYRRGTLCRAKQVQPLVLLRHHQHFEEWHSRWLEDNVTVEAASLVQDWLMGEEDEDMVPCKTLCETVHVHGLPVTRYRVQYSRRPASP
# Assay: two-hybrid
binder,measurement,value
"VP16^AD-MAD (natural protein, UniProt Q05195 1-221, looked up) MAAAVRMNIQMLLEAADYLERREREAEHGYASMLPYNNKDRDALKRRNKSKKNNSSSRSTHNEMEKNRRAHLRLCLEKLKGLVPLGPESSRHTTLSLLTKAKLHIKKLEDCDRKAVHQIDQLQREQRHLKRQLEKLGIERIRMDSIGSTVSSERSDSDREEIDVDVESTDYLTGDLDWSSSSVSDSDERGSMQSLGSDEGYSSTSIKRIKLQDSHKACLGL",fold decrease in luciferase activity against the empty vectors,3.7 fold
